Experimental data from patent US6844486 (TEMASEK LIFE SCIENCES LABORATORY, dated 2005).

Biological target: T1, GAL4 DNA binding domain-NAC1 fusion, first 199 amino acids of NAC1 (plasmid pGBNAC1 1-199) (Arabidopsis thaliana)
T1 construct: Yeast two-hybrid bait used as the fixed partner for testing the deletions; also called pGBNACl1-199; 199 amino acid version
Test: yeast two-hybrid in HF7c, HIS3 reporter
Text: Two-hybrid analysis (Bartel et al., 1993; Fields and Song, 1989; Chevray and Nathans, 1992; Lee et al., 1995) was applied to dimerization analysis. The yeast strain HF7c (MATa ura3–52 his3–200 ade2–101 lys2–801 trp1–901 leu2–3,112 gal4–542 gal 80–538 LYS2::GAL1$UAS$-GAL1$TATA$-HIS3 URA3::GAL4_{17mers(x3)}-CyC1$TATA$-LacZ which contains the two reporter genes LacZ and HIS3 was used. Yeast cotransformation with plasmids carrying the different Gal4 DNA binding domain and the Gal4 activation domain fusion was performed by methods known to those of skill in the art. See, e.g., Burke and Olson, 1986; Rudolph et al., 1985; Sakai et al., 1984. Other conditions have been described in detail elsewhere and are well known to those of skill in the art. To corroborate the interaction between the two fusion proteins, â-galactosidase activity was assayed by a replica filter assay.

binding result | Binder
no binding | GAL4 activation domain-NAC1 fusion, NAC1 amino acids 143 to the C-terminus (plasmid pGANAC1 143-324) (other, not shown: large carriers; small tags and cut ends, Yeast two-hybrid prey) FRLQGSHHPPNHSLSSPKEDWVLCRVFHKNTEGVICRDNMGSCFDETASASLPPLMDPYINFDQEPSSYLSDDHHYIINEHVPCFSNLSQNQTLNSNLTNSVSELKIPCKNPNPLFTGGSASATLTGLDSFCSSDQMVLRALLSQLTKIDGSLGPKESQSYGEGSSESLLTDIGIPSTVWNC
no binding | GAL4 activation domain-NAC1 fusion, first 142 amino acids of NAC1 (plasmid pGANAC1 1-142) (other, not shown: large carriers, Yeast two-hybrid prey) METEEEMKESSISMVEAKLPPGFRFHPKDDELVCDYLMRRSLHNNHRPPLVLIQVDLNKCEPWDIPKMACVGGKDWYFYSQRDRKYATGLRTNRATATGYWKATGKDRTILRKGKLVGMRKTLVFYQGRAPRGRKTDWVMHE
